{
  "source": "patent US20240301022A1",
  "about": "(ASTON UNIVERSITY, published 2024)",
  "key": {"[1]": {"molecular_target": "T1, human β3-adrenergic receptor (human, UniProt P13945 1-408)", "T1 construct": "whole, on cells; CHO-K1 cells transfected with the β3-AR, from Astra Zeneca; also called β3-AR; β-3AR", "T1 sequence (P13945 whole entry)": "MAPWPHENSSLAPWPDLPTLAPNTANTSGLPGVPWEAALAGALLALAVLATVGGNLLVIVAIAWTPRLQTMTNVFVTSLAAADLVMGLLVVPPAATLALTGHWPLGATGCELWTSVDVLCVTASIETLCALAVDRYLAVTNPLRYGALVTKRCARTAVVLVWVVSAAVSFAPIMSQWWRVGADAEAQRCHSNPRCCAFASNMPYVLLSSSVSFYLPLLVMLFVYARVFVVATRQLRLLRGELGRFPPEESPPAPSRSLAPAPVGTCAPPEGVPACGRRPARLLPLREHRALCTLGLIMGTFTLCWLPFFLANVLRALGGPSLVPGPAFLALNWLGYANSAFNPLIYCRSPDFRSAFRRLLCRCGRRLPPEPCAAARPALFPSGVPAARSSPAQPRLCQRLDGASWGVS", "experiment": "[125I] ZAG binding to crude membranes of transfected CHO-K1 cells; reference is ZAG on β2-AR", "description": "(§1) Binding studies were carried out at 37° C. by incubating membranes (500 μg protein) in 0.4 ml 50 mM Tris HCl, pH 7.5, containing 0.5 mM MgCl₂ for 60 min with various concentrations of [¹²⁵I]\n(§2) Non-specific binding was determined by the binding of [¹²⁵I]"}, "[2]": {"molecular_target": "T2, human β2-adrenergic receptor (human, UniProt P07550 1-413)", "T2 construct": "whole, on cells; CHO-K1 cells transfected with the human β2-AR, from the University of Nottingham; also called β2-AR; β-2AR", "experiment": "[125I] ZAG binding to crude membranes of transfected CHO-K1 cells; reference is ZAG on β3-AR", "description": "as §1, §2"}, "[3]": {"molecular_target": "T3, human β1-adrenergic receptor (human, UniProt P08588 1-477)", "T3 construct": "whole, on cells; CHO-K1 cells transfected with the human β1-AR, from the University of Nottingham; also called β1-AR; β-1AR", "T3 sequence (P08588 whole entry)": "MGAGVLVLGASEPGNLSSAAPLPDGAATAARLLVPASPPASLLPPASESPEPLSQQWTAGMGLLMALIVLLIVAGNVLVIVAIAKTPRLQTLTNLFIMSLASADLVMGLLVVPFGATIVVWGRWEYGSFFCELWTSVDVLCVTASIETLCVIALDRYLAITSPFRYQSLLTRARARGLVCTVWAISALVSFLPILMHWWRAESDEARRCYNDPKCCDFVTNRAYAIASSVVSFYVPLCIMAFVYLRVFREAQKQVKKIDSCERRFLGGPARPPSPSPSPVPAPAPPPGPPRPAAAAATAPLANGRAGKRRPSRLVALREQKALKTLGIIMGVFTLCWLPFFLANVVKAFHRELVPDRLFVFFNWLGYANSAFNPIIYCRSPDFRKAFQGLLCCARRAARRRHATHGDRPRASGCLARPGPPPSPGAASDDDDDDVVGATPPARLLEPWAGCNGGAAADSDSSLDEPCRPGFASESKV", "experiment": "[125I] ZAG binding to crude membranes of CHO-K1 cells transfected with human β1-AR, non-linear regression", "description": "as §1, §2"}, "[4]": {"molecular_target": "T2, human β2-adrenergic receptor", "experiment": "[125I] ZAG saturation binding to crude membranes of CHO-K1 cells transfected with human β2-AR, non-linear regression", "description": "as §1, §2"}, "[5]": {"molecular_target": "T1, human β3-adrenergic receptor", "experiment": "[125I] ZAG saturation binding to crude membranes of CHO-K1 cells transfected with human β3-AR, non-linear regression", "description": "as §1, §2"}},
  "data": [
    {"binder": "recombinant human zinc-α2-glycoprotein (ZAG) (ligand, 125I label (iodo bead labelling) in the membrane binding studies; labelled residues not stated, Glycoprotein; also called Zn-α2-glycoprotein; rhZAG) QENQDGRYSLTYIYTGLSKHVEDVPAFQALGSLNDLQFFRYNSKDRKSQPMGLWRQVEGMEDWKEDSQLQKAREDMETLKDIVEYYNDSNGSHVLQGRFGCEIENNRSSGAFWKYYYDGKDYIEFNKEIPAWVPFDPAAQITKQKWEAEPVYVQRAKAYLEEECPATLRKYLKYSKNILDRQDPPSVVVTSHQAPGEKKKLKCLAYDFYPGKIDVHWTRAGQVQEPELRGDVLHNGNGTYQSWVVVAVPPQDTAPYSCHVQHSSLAQPLVVPWEAS", "values": [
      {"measurement": "Bmax relative to β2-AR", "setting": "[1]", "value": "~3", "unit": "fold"},
      {"measurement": "Kd relative to β2-AR", "setting": "[1]", "value": "~0.5", "unit": "fold"},
      {"measurement": "Bmax relative to β3-AR", "setting": "[2]", "value": 20, "unit": "%"},
      {"measurement": "Kd relative to β3-AR", "setting": "[2]", "value": 2, "unit": "fold"},
      {"measurement": "binding result", "setting": "[3]", "value": "no binding"},
      {"measurement": "Kd", "setting": "[4]", "value": 71, "unit": "nM"},
      {"measurement": "Kd", "setting": "[5]", "value": 46, "unit": "nM"}
    ]}
  ]
}
